Source: IntAct's records for PubMed 17157788

Molecular target: aatf_human AATF (UniProt Q9NY61)
Sequence (Q9NY61 whole entry): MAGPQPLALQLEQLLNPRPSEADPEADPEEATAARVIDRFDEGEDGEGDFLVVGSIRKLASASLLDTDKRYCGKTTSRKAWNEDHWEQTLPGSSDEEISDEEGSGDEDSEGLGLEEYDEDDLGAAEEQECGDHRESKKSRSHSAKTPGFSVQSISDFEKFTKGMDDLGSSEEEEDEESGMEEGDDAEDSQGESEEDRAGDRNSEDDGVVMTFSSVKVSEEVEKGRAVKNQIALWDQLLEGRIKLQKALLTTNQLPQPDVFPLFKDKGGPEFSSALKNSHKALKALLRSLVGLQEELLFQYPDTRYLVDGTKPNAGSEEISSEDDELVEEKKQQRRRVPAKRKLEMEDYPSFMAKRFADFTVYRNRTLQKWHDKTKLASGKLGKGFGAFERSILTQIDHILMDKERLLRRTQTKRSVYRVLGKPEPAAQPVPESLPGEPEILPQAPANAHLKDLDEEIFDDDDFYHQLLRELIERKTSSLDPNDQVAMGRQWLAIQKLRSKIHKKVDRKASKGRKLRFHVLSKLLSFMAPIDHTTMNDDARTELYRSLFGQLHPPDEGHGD

- effect of a mutation on the interaction: disrupting interaction
Substance: Serine/threonine-protein kinase ATR (Homo sapiens), Q13535 K2327R
